# T1: FcγRIIb extracellular domain with C-terminal His tag (human, UniProt P31994 43-217)
# T1 construct: extracellular domain; also called FcgRIIb; 2b
# T1 sequence (looked up): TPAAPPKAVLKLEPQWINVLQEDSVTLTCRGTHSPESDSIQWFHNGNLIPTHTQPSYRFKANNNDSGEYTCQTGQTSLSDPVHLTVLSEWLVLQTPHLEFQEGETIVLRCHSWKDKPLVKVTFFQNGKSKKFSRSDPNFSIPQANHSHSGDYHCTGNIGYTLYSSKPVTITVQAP
# B1: GpH7-A5/GpH7-B3 variant Y296_01G/GpL16-k0 (antibody, human IgG1, kappa)
# heavy 1: not shown
# heavy 2: not shown
# light: DIVMTQSPLSLPVTPGEPASISCQASESLVHSNRNTYLHWYLQKPGQSPQLLIYKVSNRFSGVPDRFSGSGSGTDFTLKISRVEAEDVGVYYCSQNTHVPPTFGQGTKVEIERTVAAPSVFIFPPSDEQLKSGTASVVCLLNNFYPREAKVQWKVDNALQSGNSQESVTEQDSKDSTYSLSSTLTLSKADYEKHKVYACEVTHQGLSSPVTKSFNRGEC
# notes: Heterodimerized anti-glypican-3 IgG1; alteration only in the GpH7-B3 chain, EU numbering; also called He Ab
# B2: GpH7-A5/GpH7-B3 variant S298_07I/GpL16-k0 (antibody, human IgG1, kappa)
# heavy 1: not shown
# heavy 2: not shown
# light: B1 light
# notes: as for B1
# B3: GpH7-A5/GpH7-B3 variant Q295_04F/GpL16-k0 (antibody, human IgG1, kappa)
# heavy 1: not shown
# heavy 2: not shown
# light: B1 light
# notes: as for B1
# B4: GpH7-A5/GpH7-B3 variant S298_02A/GpL16-k0 (antibody, human IgG1, kappa)
# heavy 1: not shown
# heavy 2: not shown
# light: B1 light
# notes: Heterodimerized anti-glypican-3 IgG1; S298A (EU numbering) only in the GpH7-B3 chain; also called He Ab; GpH7-A5/GpH7-B3-15-02A/GpL16-k0
# B5: GpH7-A5/GpH7-B3 variant Y296_02A/GpL16-k0 (antibody, human IgG1, kappa)
# heavy 1: not shown
# heavy 2: not shown
# light: B1 light
# notes: as for B1
# B6: GpH7-A5/GpH7-B3 variant S298_03V/GpL16-k0 (antibody, human IgG1, kappa)
# heavy 1: not shown
# heavy 2: not shown
# light: B1 light
# notes: as for B1
# B7: GpH7-A5/GpH7-B3 variant Y296_03V/GpL16-k0 (antibody, human IgG1, kappa)
# heavy 1: not shown
# heavy 2: not shown
# light: B1 light
# notes: as for B1
# B8: GpH7-A5/GpH7-B3 variant Y296_07I/GpL16-k0 (antibody, human IgG1, kappa)
# heavy 1: not shown
# heavy 2: not shown
# light: B1 light
# notes: as for B1
# B9: GpH7-A5/GpH7-B3 variant Y296_12R/GpL16-k0 (antibody, human IgG1, kappa)
# heavy 1: not shown
# heavy 2: not shown
# light: B1 light
# notes: as for B1
# B10: GpH7-A5/GpH7-B3 variant Y296_11K/GpL16-k0 (antibody, human IgG1, kappa)
# heavy 1: not shown
# heavy 2: not shown
# light: B1 light
# notes: as for B1
# B11: GpH7-A5/GpH7-B3 variant Q295_05P/GpL16-k0 (antibody, human IgG1, kappa)
# heavy 1: not shown
# heavy 2: not shown
# light: B1 light
# notes: as for B1
# B12: GpH7-A5/GpH7-B3 variant Y296_05P/GpL16-k0 (antibody, human IgG1, kappa)
# heavy 1: not shown
# heavy 2: not shown
# light: B1 light
# notes: as for B1
# B13: GpH7-A5/GpH7-B3 variant Q295_16H/GpL16-k0 (antibody, human IgG1, kappa)
# heavy 1: not shown
# heavy 2: not shown
# light: B1 light
# notes: as for B1
# B14: GpH7-A5/GpH7-B3 variant Q295_15Y/GpL16-k0 (antibody, human IgG1, kappa)
# heavy 1: not shown
# heavy 2: not shown
# light: B1 light
# notes: as for B1
# B15: GpH7-A5/GpH7-B3 variant Y296_19Q/GpL16-k0 (antibody, human IgG1, kappa)
# heavy 1: not shown
# heavy 2: not shown
# light: B1 light
# notes: as for B1
# Target: T2, FcγRIa extracellular domain with C-terminal His tag (human, UniProt P12314 16-292)
# T2 construct: extracellular domain; also called FcgRI; 1a
# T2 sequence (P12314 16-292): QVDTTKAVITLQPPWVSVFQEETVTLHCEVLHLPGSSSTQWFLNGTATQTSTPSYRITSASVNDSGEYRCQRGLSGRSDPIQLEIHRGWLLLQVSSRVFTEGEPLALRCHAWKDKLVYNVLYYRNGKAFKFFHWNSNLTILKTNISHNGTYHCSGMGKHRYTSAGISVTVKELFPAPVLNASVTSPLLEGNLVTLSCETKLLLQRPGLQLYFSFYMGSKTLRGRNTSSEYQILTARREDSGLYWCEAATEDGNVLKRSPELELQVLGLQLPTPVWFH
# Assay: SPR (Biacore); He/Con_1a divided by He/Con_2b (FcγRIa binding over FcγRIIb binding)
# Description: (§1) The heterodimerized antibodies He Abs in which one of the H chains was introduced with an alteration were assayed for their binding activities to each activating FcγR and inhibitory FcγR according to the method described in Example 4. […] The activating FcγRs in FIGS. 26, 27, 28, and 29 are FcγRIa, FcγRIIa (R), FcγRIIa (H), and FcγRIIIa, respectively.
# (§2) Analysis of interaction between objective antibody and the FcγR was carried out using Biacore T100 (GE Healthcare). HBS-EP+ (GE Healthcare) was used as the running buffer, and the measurement temperature was set to 25° C. Chips produced by immobilizing the antigen peptide by the amine coupling method to a Series S Sencor Chip CM5 (GE Healthcare), or alternatively, chips produced by allowing preliminarily biotinylated antigen peptides to interact with and immobilize onto a Series S Sensor Chip SA (certified) (GE Healthcare) were used. Antibodies of interest were captured onto an antigen peptide-immobilized chip, and allowed to interact to each FcγR diluted with running buffer. To regenerate and repeatedly use the chip, the antibodies captured on the chip were washed off by reacting 10 mM glycine-HCl, pH 1.5.
row,He_1a/2b (Ia/IIb) [ratio],Binder
1,1.29,B1
2,1.52,B2
3,1.58,B3
4,1.45,B4
5,1.26,B5
6,1.7,B6
7,1.31,B7
8,1.24,B8
9,1.34,B9
10,1.44,B10
11,1.53,B11
12,2.61,B12
13,1.64,B13
14,1.56,B14
15,1.25,B15

# Target: T1, FcγRIIb extracellular domain with …
# Assay: SPR (Biacore), antibody captured via antigen peptide, FcγR as analyte; relative binding
# Description: as §1, §2
row,He/Con_2b,Binder
1,79.3 % of GpH7-A5/GpH7-B3/GpL16-k0 (=100),B1
2,70.6 % of GpH7-A5/GpH7-B3/GpL16-k0 (=100),B2
3,64.7 % of GpH7-A5/GpH7-B3/GpL16-k0 (=100),B3
4,73.4 % of GpH7-A5/GpH7-B3/GpL16-k0 (=100),B4
5,82 % of GpH7-A5/GpH7-B3/GpL16-k0 (=100),B5
6,64.5 % of GpH7-A5/GpH7-B3/GpL16-k0 (=100),B6
7,79.3 % of GpH7-A5/GpH7-B3/GpL16-k0 (=100),B7
8,84.3 % of GpH7-A5/GpH7-B3/GpL16-k0 (=100),B8
9,79.5 % of GpH7-A5/GpH7-B3/GpL16-k0 (=100),B9
10,72.8 % of GpH7-A5/GpH7-B3/GpL16-k0 (=100),B10
11,67.5 % of GpH7-A5/GpH7-B3/GpL16-k0 (=100),B11
12,36.6 % of GpH7-A5/GpH7-B3/GpL16-k0 (=100),B12
13,62.7 % of GpH7-A5/GpH7-B3/GpL16-k0 (=100),B13
14,65.4 % of GpH7-A5/GpH7-B3/GpL16-k0 (=100),B14
15,89.3 % of GpH7-A5/GpH7-B3/GpL16-k0 (=100),B15

# Target: T2, FcγRIa extracellular domain with …
# Assay: as above
# Description: as §1, §2
row,He/Con_1a,Binder
1,103 % of GpH7-A5/GpH7-B3/GpL16-k0 (=100),B1
2,107 % of GpH7-A5/GpH7-B3/GpL16-k0 (=100),B2
3,102 % of GpH7-A5/GpH7-B3/GpL16-k0 (=100),B3
4,107 % of GpH7-A5/GpH7-B3/GpL16-k0 (=100),B4
5,103 % of GpH7-A5/GpH7-B3/GpL16-k0 (=100),B5
6,110 % of GpH7-A5/GpH7-B3/GpL16-k0 (=100),B6
7,104 % of GpH7-A5/GpH7-B3/GpL16-k0 (=100),B7
8,104 % of GpH7-A5/GpH7-B3/GpL16-k0 (=100),B8
9,106 % of GpH7-A5/GpH7-B3/GpL16-k0 (=100),B9
10,105 % of GpH7-A5/GpH7-B3/GpL16-k0 (=100),B10
11,103 % of GpH7-A5/GpH7-B3/GpL16-k0 (=100),B11
12,95.6 % of GpH7-A5/GpH7-B3/GpL16-k0 (=100),B12
13,102 % of GpH7-A5/GpH7-B3/GpL16-k0 (=100),B13
14,102 % of GpH7-A5/GpH7-B3/GpL16-k0 (=100),B14
15,112 % of GpH7-A5/GpH7-B3/GpL16-k0 (=100),B15
